In patent publication US20180237756:

Tests used:
[1] = tested on: TAT (trans-activator of transcription) (HIV); assay: competition
[2] = biological target: T1, TgoT DNA polymerase (V93Q D141A E143A A485L) (Thermococcus gorgonarius) (UniProt P56689); conditions: does not synthesise HNA much beyond six incorporations
T1 sequence: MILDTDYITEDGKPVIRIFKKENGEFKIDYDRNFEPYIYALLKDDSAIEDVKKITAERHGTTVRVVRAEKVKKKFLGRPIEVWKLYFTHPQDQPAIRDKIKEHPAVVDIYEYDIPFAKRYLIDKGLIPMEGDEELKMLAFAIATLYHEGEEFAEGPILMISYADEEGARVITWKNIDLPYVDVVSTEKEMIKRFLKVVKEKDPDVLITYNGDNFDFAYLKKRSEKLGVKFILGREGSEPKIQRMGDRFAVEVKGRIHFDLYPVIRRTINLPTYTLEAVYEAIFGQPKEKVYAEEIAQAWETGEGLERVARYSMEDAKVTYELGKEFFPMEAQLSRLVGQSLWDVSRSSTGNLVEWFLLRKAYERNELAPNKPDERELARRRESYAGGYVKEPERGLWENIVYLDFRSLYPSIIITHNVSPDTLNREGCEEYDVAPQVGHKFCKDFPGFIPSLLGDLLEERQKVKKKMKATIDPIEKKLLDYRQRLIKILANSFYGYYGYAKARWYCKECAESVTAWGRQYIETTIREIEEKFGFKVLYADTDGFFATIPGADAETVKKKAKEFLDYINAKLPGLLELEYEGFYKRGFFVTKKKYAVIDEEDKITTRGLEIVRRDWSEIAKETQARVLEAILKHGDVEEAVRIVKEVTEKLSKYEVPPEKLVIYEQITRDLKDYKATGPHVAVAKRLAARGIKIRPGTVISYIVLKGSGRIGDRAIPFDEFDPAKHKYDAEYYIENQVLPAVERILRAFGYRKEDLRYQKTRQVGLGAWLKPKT

Substance	IC50 ([1]; IC50 of HNA anti-TAR aptamer T5S8-7 (binds TAR RNA) displacing TAT from immobilized miniTAR, CI95 1.3-2.8 nM)	IC50 ([1]; IC50 of RNA anti-TAR aptamer R06 (binds TAR RNA) displacing TAT from immobilized miniTAR, CI95 166-675 nM)	activity (hNTP incorporations) [2]
miniTAR RNA	1.9 nM	313 nM	–
E. coli tRNA supE gene primer-template	–	–	6
